From the nanobody polyreactivity screen of Harvey et al. (2022)

Test: yeast display, Sf9 membrane polyspecificity reagent, FACS + sequencing; frameworks hold sequencing errors
Summary of the method: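 A nanobody's polyreactivity label depends on the gate it was sorted from. Yeast display cells were stained with 10% biotinylated, detergent-solubilized Sf9 membrane reagent for 1 hour at 4 °C, enriched on streptavidin microbeads and sorted by FACS. The low and high (top ~1%) gates were set on anti-HA fluorescence for expression and streptavidin fluorescence for reagent binding.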

Sequence | polyreactivity (PSR sort gate)
QVQLVESGGGLVQAGGSLRLSCAASGSIFPAYAMGWYRQAPGKERELVAAITFSGGSTYYADSVKGRFTISRDNAKNTVYLQMNSLKPEDTAVYYCATDSYGWRFNRAITSYGGDYWGQGTQVTVSS | low polyreactivity
QVQLVESGGGLVQAGGSLRLSCAASGFIFADNAMGWYRQAPGKERELVAGITSGGITNYADSVKGRFTISRDNAKNTVYLQMNSLKQVDTAVYYCAVYYRRWFSRYDYWGQGTQVTVSS | low polyreactivity
QVQLVESGGGLVQAGGSLRLSCAASGFIFVLYTMGWYRQAPGKEREMVASITQSGGSTYYADSVKGRFTISRDNAKNTVYLQMNSLKPEDTAVYYCAAVWAHEWWELDYWGQGTQVTVSS | low polyreactivity
QVHLVESGGGLVQAGVSLRLSCPASGIIFWFYAMGWYRQSPGKERQLVAAISGDGDSTYYADSVKGRFTISRDNAKNTVYLQMNSLKPEDTAVYYCAAEWDPVFATDEDDYWGQRTQVTVSS | low polyreactivity
QVQLVESGGGLVQAGGSLRLSCAASGSTFPYYAMGWYRQAPGKERELVAAISSSGGSTYYADSVKGRFTFSRDNAKNTVYLLMNSLKPEDTAVYYCNVVKSRGLFSYDYWGQGSQVTVSS | high polyreactivity
QVQLVESGGGLVQAGGSLRLSCAASGRIFSTYAMVWYREAPGKEMELVAAINKIGGSTYYADSVKGRFTISRDNAKNTVYLQMNSLKPEDTAVYYCAADAPYYPFRRYYYWGQGTQVTVSS | low polyreactivity
QVQLVESGGGLVQAGGSLRLSCAASGFIFLENDMGCYRQAPGKERELVASINSGSDTNYADSVKGRFTISRDNAKNTVYLQMNSLKPEDTAVYYCNASYNGVPARYDYWGQGTQVTVSS | low polyreactivity
QVQLVESGGGLVQAGGSLRLSCAASGLTFRRNAMGWYRQAPGKERELVAAISSGGVRTYYADSVKGRFTISRDNAKNTVYLQMNSLKPEDTAVYYCAAEDYAQRYTHYESWGQGTQVTVSS | low polyreactivity
QVQLVESGGGSVQAGGRLRLSCAASGLIFAGYARGWYRQSPGKERELVAASSTSGGRTYYADSVKGRFTISRDNAKNTVYLQINSLTPEDTAVYYCAAYPVHGKTQELAKEDYWGQGTQVTVSS | high polyreactivity
QVQLVESGGGLVQAGGSIRLSCAASGRTFYGYAMGRYRQAPGKEREFDAAISVGGVSTYYADSVKGRFTISRDNAKNTVYLQMNSLKPEDTAVYYCAAYTRYWSYGYWGQGTQVTVSS | high polyreactivity
QDQLVESGGGLVQAGGSLRLSCAASGFIIQGNAMGGYRQAPRKERELVAAISSSVSTYYADSVKGRFTISRDNAKNTVYLQMNSLKPEDTAVYYCNSGFPLSLWLGDYWGQGTQVTVSS | low polyreactivity
QVQLVESGGGLVQAGGSLRLSCAASGRIFGYYAMGWYRQAPGKERELVAAITRNGGSTYYADSVKGRFTISRDNAKNTVYLQMNSLKPEDTAVYYCAATKGGGRGYWGQGTQLTVSS | high polyreactivity
QVQLVESGGGLVQAGGSLRLSCAASGLTFAAYAMGWYRQAPGKEREMVAAISRRGGSTYYADSVKGRFTISRDNAKNTVYLQMNRLKPEDTAVYYCARGGSRLTQGWLVTPYDYDYWGQGTQVNVSS | high polyreactivity
QVQLVESGGGLVLAGGSLRLSCAASGGTFARYAMGWYRQAPGKERELVAAISRGGSTNYADSVKGRFTISRDNAKNTVYLQMNSLKPEDTAVYYCAAGSRRAAWYDYSYPYGYWGQGTQVTVSS | high polyreactivity
QVQLQESRGGLVKAGGSLRLSCAATGNISPRDAMGWYRQAPGEERDLVASNAYSAITYYADGVKGRYTISRDNAKNTVYLQMNSLKPEDTEVYYCAVYQFTYPVFPAYWGQGTQVTVSS | low polyreactivity
QVHLVESGGVLVQAGGSLRLSCAASGSIFDDYAMGWYRQAPGKERELVAAISSSGTSTYYADSVKGRFTISRDTANNTVYLQMNSLKPEDTAVYYCAARSAILDYWGQGTQVTVSS | low polyreactivity

Sequence | polyreactivity (PSR sort gate)
QDQLVESGGGTVQAGGSLRISCAASGSILRSNAMGWYRQAPAKERELVAAITQSGGSTFYADSVKGRFTITRDNAKNTVYLQMNSLKPEDTAVYYWGQGTQVTVSS | low polyreactivity
QVQLVESVGGLVQAGGSLRLSCAASGIFRQNAMGWYRQAPGKERELVAGISQSGGSTYYADSVKGRFTISRDNAKNTVYLQMNSLKPEDTAVYYCAVVSIWGYDYWGQGTQVTVSS | low polyreactivity
QVQLVDSGGGLVQAGGSLRLSCAASGRIFGPYAMVWYRQAPGKERELVASISYSGGSTYYADSVKGRFTISRDNAKNTVYLQMNSLKPEDTAVYYCAKGGYWGGYNYWGQGTQVTVSS | low polyreactivity
QVQLVESGGGLVQAGGSLRLSCAASGFIFYYNTMGWYRQAPGKERELVASITWSGDTTYYADSVKGRFSISRDNAKNTVYLQMNSLIPEDTAVYYCAAVHYYPYRRYDYWGQGTQVTVSS | low polyreactivity
QVQLVESGGGLVQAGGSLRLSCAASGFIFRGNAMGWYRQAPGKERELVAAISKRGGSTNYADSVKGRFTISRDNAKNTVYLQMNSLKPEDTAVYYCNAEGIYRQPRGYVYRYDYWGQGTQVTVSS | high polyreactivity
QVQLVESGGGLVQAGGSLRLSCPASGRTFPGYSKGWYRQAPGKERELVATITGNGGSTYYADSVKGRFTISRENAKNTVYLQMNSLKPEDTAVYYCAGGRRRPYVRAYRGTDYWVQGTQVTVSS | low polyreactivity
QVQLVESGGGLVQAGGSLRLSCAASGRTFVTYAMGWYRQAPGKERELVAVITNGGGTYYADSVKGRFTISRDNAKNTVYLQMNSLKPEDTALYYCNNDRYGLRRWVYSYLGGYDYWGQGTQVTVSS | low polyreactivity
QVQLVESGGGLVQAGGILRLSCAASGSTLTSNDMGWYRQAPGKERELFADITWSGGDTYYADSVKGRFTISRDNAKYTVYLQMNSLKPEDTAVYYCAAEDPNYRPFAYGIEYDYWGQGTQVTVSS | low polyreactivity
QVQLVESGGGLVQAGGSLRLSCAASGRIVYVNVMGWYRQAPGKERELVAAINWSDGSTYYADSVKGRFTISRDNAKNTVYLQMNSLKPEETAVYYFNRRGPYGYKAWAIGTIGDLDYWGHGTQVTVSS | low polyreactivity
QVQLVESGGGLVKAGGSLRLSCAASGRIFRYYAMGRYRQAPGKEREFVAAISTDGGRTYYADSVKGRFTISRDNAKNTVYLQMNSLKPEDTAVYYCAIYPGISGYNYWGQGTQVTVSS | high polyreactivity
QVQLVESGGGLVQAGGSLRLSCAASGLIFGYYAMGWYRQAPGKERELVAAISWSGGRTYYADSVKGRFTISRDNAKNTVYLQMNSLKPEDTAVYYCAADTYPYIGGYYWGQVTQVTVSS | high polyreactivity
QVQLVESGGGLVQAGGSLRLSCAASGRIFGIYAMGWYRQAPRKERELVASITDGTITNYADSVKGRFTISRDNAKNTVYLQMNSLKPEDTAVYYCAAGTQAHAYVVRPIEMDYWGQGTQVTVSS | low polyreactivity
QVQLVESGGGLVQAGGSLRLSCAASGSTFVTYAMGWYRQAPGKERELVAAIDSGGNTNYADSVKGRFTISRDNAKNTVYLQMNSLKPEDTAVYYCAVRPYELHRLDDQPGGDDYWGQGTQVTVSS | low polyreactivity
QVQLVESGGGLVQAGGSLRLSCAASGLILDGYAMGWYRQAPGKERELVAAITRSGGRTYYADSVKGRFTISRDNAKNTVYLQMKSLKPEDPAVYYCAALGWSGRYRYDYWGQGTQVTVSS | high polyreactivity
QVQLVESGGGLVQAGGSLRLSCAASGRTFGYYAMGWYRQAPGKERELVAALSTSGGSTHYADSVKGRFTISRDNAKNTVSLQMNSLKPEDTAVYYCNARLRTGTPYKYVSYNSWGQGTQVTVSS | high polyreactivity
QVQLVESGGGLVQAGGSLRLSCAPSGSTFPLYAMGWYRQAHGNEREFVAAIRWIGGSTYYADSVKGRFTISRDNAKNTVYLQMNSLKPEDTAVYYCAADYVVSAFDYWGQGTQVTVSS | low polyreactivity
